# IntAct's records for PubMed 15328353
# B1: Plasma serine protease inhibitor (Mus musculus), P70458 (parent)
# chain: MRFFPILCLVLFISHGVASRRHSHSKKKKAKESSVGAVGPPSSKDFAFRLYRALVSESPGQNVFFSPLSVSMSLGMLSLGAGLKTKTQILDGLGLSLQQGQEDKLHKGFQQLLQRFRQPSDGLQLSLGSALFKDPAVHIRDDFLSAMKTLYMSDTFSTNFGNPEIAKKQINNYVAKQTKGKIVDFIKDLDSTHVMIVVNYIFFKAKWQTAFSETNTHKMDFHVTPKRTTQVPMMNREDGYSYYLDQNISCTVVGIPYQGNAIALFILPSEGKMKQVEDGLDERTLRNWLKMFTKRRLDLYLPKFSIEATYKLENVLPKLGIQDVFTTHADLSGITDHTNIKLSEMVHKSMMEVEESGTTAAAITGAIFTFRSARPSSLKIEFTRPFLLTLMEDSHILFVGKVTRP
# partner: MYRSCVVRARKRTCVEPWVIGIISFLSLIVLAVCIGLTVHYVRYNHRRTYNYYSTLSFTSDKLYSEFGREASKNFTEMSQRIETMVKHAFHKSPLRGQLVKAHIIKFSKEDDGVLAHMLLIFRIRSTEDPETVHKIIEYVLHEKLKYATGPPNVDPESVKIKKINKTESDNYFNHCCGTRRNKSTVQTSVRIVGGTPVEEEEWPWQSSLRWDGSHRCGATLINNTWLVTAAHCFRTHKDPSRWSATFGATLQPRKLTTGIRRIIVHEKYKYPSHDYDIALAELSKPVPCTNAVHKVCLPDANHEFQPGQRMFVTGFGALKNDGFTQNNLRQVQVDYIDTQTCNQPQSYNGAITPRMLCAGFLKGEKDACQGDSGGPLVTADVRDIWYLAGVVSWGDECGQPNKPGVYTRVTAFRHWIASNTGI
# B2: Plasminogen activator inhibitor 1 (Mus musculus), P22777 (parent)
# chain: MQMSSALACLILGLVLVSGKGFTLPLRESHTAHQATDFGVKVFQQVVQASKDRNVVFSPYGVSSVLAMLQMTTAGKTRRQIQDAMGFKVNEKGTAHALRQLSKELMGPWNKNEISTADAIFVQRDLELVQGFMPHFFKLFQTMVKQVDFSEVERARFIINDWVERHTKGMINDLLAKGAVDELTRLVLVNALYFSGQWKTPFLEASTHQRLFHKSDGSTVSVPMMAQSNKFNYTEFTTPDGLEYDVVELPYQRDTLSMFIAAPFEKDVHLSALTNILDAELIRQWKGNMTRLPRLLILPKFSLETEVDLRGPLEKLGMPDMFSATLADFTSLSDQEQLSVAQALQKVRIEVNESGTVASSSTAFVISARMAPTEMVIDRSFLFVVRHNPTETILFMGQVMEP
# partner: B1 partner
# Variants of: B1
# Details: with tm11e_mouse Tmprss11e
row,effect of a mutation on the interaction,Variant
1,decreasing interaction,MRFFPILCLVLFISHGVASRRHSHSKKKKAKESSVGAVGPPSSKDFAFRLYRALVSESPGQNVFFSPLSVSMSLGMLSLGAGLKTKTQILDGLGLSLQQGQEDKLHKGFQQLLQRFRQPSDGLQLSLGSALFKDPAVHIRDDFLSAMKTLYMSDTFSTNFGNPEIAKKQINNYVAKQTKGKIVDFIKDLDSTHVMIVVNYIFFKAKWQTAFSETNTHKMDFHVTPKRTTQVPMMNREDGYSYYLDQNISCTVVGIPYQGNAIALFILPSEGKMKQVEDGLDERTLRNWLKMFTKRRLDLYLPKFSIEATYKLENVLPKLGIQDVFTTHADLSGITDHTNIKLSEMVHKSMMEVEESGTTAAAITGAIFTFRSAAPSSLKIEFTRPFLLTLMEDSHILFVGKVTRP [R374A]

# Variants of: B2
# Details: with tm11e_mouse Tmprss11e
row,effect of a mutation on the interaction,Variant
1,decreasing interaction,MQMSSALACLILGLVLVSGKGFTLPLRESHTAHQATDFGVKVFQQVVQASKDRNVVFSPYGVSSVLAMLQMTTAGKTRRQIQDAMGFKVNEKGTAHALRQLSKELMGPWNKNEISTADAIFVQRDLELVQGFMPHFFKLFQTMVKQVDFSEVERARFIINDWVERHTKGMINDLLAKGAVDELTRLVLVNALYFSGQWKTPFLEASTHQRLFHKSDGSTVSVPMMAQSNKFNYTEFTTPDGLEYDVVELPYQRDTLSMFIAAPFEKDVHLSALTNILDAELIRQWKGNMTRLPRLLILPKFSLETEVDLRGPLEKLGMPDMFSATLADFTSLSDQEQLSVAQALQKVRIEVNESGTVASSSTAFVISAAMAPTEMVIDRSFLFVVRHNPTETILFMGQVMEP [R369A]
2,decreasing interaction,MQMSSALACLILGLVLVSGKGFTLPLRESHTAHQATDFGVKVFQQVVQASKDRNVVFSPYGVSSVLAMLQMTTAGKTRRQIQDAMGFKVNEKGTAHALRQLSKELMGPWNKNEISTADAIFVQRDLELVQGFMPHFFKLFQTMVKQVDFSEVERARFIINDWVERHTKGMINDLLAKGAVDELTRLVLVNALYFSGQWKTPFLEASTHQRLFHKSDGSTVSVPMMAQSNKFNYTEFTTPDGLEYDVVELPYQRDTLSMFIAAPFEKDVHLSALTNILDAELIRQWKGNMTRLPRLLILPKFSLETEVDLRGPLEKLGMPDMFSATLADFTSLSDQEQLSVAQALQKVRIEVNESGRVRSSSTAFVISARMAPTEMVIDRSFLFVVRHNPTETILFMGQVMEP [T356R;A358R]
